Results on six molecules are retold here after patent US20200079833A1 (AstraZeneca / MedImmune, published 2020).

Starred links: 1 amine or outer side, 2 acyl side, 3 side chain; linkers in the order of their positions; H or OH if unused. Non-standard residues stand in square brackets, D forms with d. Groups on a side chain read outwards from the residue. No end group written: not given here. *: point of attachment. Dodecanoyl(12-OPh(4-COOH)) = O=C(O)c1ccc(OCCCCCCCCCCCC(=O)*)cc1; γGlu = O=C(O)[C@H](CCC(=O)[*:2])N[*:1]; αMeF = C[C@](N)(Cc1ccccc1)C(=O)O; αMeK = C[C@](N)(CCCCN)C(=O)O; αMeS = C[C@](N)(CO)C(=O)O; Aib = CC(C)(N)C(=O)O; Ahx = NCCCCCC(=O)O

The chains are these.
T1: glucose-dependent insulinotropic peptide (gastric inhibitory polypeptide) receptor (GIPR) (human, UniProt P48546 22-466)
T1 sequence (looked up): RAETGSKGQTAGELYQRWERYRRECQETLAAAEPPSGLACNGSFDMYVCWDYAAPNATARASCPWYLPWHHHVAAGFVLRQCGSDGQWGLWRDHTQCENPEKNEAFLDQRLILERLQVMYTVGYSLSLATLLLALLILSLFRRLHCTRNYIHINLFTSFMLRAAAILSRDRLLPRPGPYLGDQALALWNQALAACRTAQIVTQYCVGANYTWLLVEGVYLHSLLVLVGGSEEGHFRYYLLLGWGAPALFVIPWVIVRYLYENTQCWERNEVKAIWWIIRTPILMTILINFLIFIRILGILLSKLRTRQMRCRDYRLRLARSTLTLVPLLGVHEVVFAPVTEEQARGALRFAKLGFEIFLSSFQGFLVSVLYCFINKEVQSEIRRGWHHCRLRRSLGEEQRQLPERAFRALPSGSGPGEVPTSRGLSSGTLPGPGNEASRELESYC

B1: SEQ ID NO 137 (peptide)
peptide: H[Aib]EGS[αMeF]TSDV[αMeS]S[αMeF]LEGEAAK([γGlu-Dodecanoyl(12-OPh(4-COOH))])E[αMeF]IA[αMeF]VV[αMeK]GG-NH2
modifications: N-terminus assumed
SMILES: CC[C@H](C)[C@H](NC(=O)[C@](C)(Cc1ccccc1)NC(=O)[C@H](CCC(=O)O)NC(=O)[C@H](CCCCNC(=O)CC[C@H](NC(=O)CCCCCCCCCCCOc1ccc(C(=O)O)cc1)C(=O)O)NC(=O)[C@H](C)NC(=O)[C@H](C)NC(=O)[C@H](CCC(=O)O)NC(=O)CNC(=O)[C@H](CCC(=O)O)NC(=O)[C@H](CC(C)C)NC(=O)[C@](C)(Cc1ccccc1)NC(=O)[C@H](CO)NC(=O)[C@](C)(CO)NC(=O)[C@@H](NC(=O)[C@H](CC(=O)O)NC(=O)[C@H](CO)NC(=O)[C@@H](NC(=O)[C@](C)(Cc1ccccc1)NC(=O)[C@H](CO)NC(=O)CNC(=O)[C@H](CCC(=O)O)NC(=O)C(C)(C)NC(=O)[C@@H](N)Cc1c[nH]cn1)[C@@H](C)O)C(C)C)C(=O)N[C@@H](C)C(=O)N[C@@](C)(Cc1ccccc1)C(=O)N[C@H](C(=O)N[C@H](C(=O)N[C@@](C)(CCCCN)C(=O)NCC(=O)NCC(N)=O)C(C)C)C(C)C
B2: SEQ ID NO 139 (peptide)
peptide: H[Aib]EGS[αMeF]TSDV[αMeS]S[αMeF]LEGEAAK([γGlu-γGlu-γGlu-Dodecanoyl(12-OPh(4-COOH))])E[αMeF]IA[αMeF]VV[αMeK]GG-NH2
modifications: N-terminus assumed
SMILES: CC[C@H](C)[C@H](NC(=O)[C@](C)(Cc1ccccc1)NC(=O)[C@H](CCC(=O)O)NC(=O)[C@H](CCCCNC(=O)CC[C@H](NC(=O)CC[C@H](NC(=O)CC[C@H](NC(=O)CCCCCCCCCCCOc1ccc(C(=O)O)cc1)C(=O)O)C(=O)O)C(=O)O)NC(=O)[C@H](C)NC(=O)[C@H](C)NC(=O)[C@H](CCC(=O)O)NC(=O)CNC(=O)[C@H](CCC(=O)O)NC(=O)[C@H](CC(C)C)NC(=O)[C@](C)(Cc1ccccc1)NC(=O)[C@H](CO)NC(=O)[C@](C)(CO)NC(=O)[C@@H](NC(=O)[C@H](CC(=O)O)NC(=O)[C@H](CO)NC(=O)[C@@H](NC(=O)[C@](C)(Cc1ccccc1)NC(=O)[C@H](CO)NC(=O)CNC(=O)[C@H](CCC(=O)O)NC(=O)C(C)(C)NC(=O)[C@@H](N)Cc1c[nH]cn1)[C@@H](C)O)C(C)C)C(=O)N[C@@H](C)C(=O)N[C@@](C)(Cc1ccccc1)C(=O)N[C@H](C(=O)N[C@H](C(=O)N[C@@](C)(CCCCN)C(=O)NCC(=O)NCC(N)=O)C(C)C)C(C)C
B3: SEQ ID NO 142 (peptide)
peptide: H[Aib]EGS[αMeF]TSDV[αMeS]S[αMeF]LEGEAAK([Ahx-Ahx-Ahx-Dodecanoyl(12-OPh(4-COOH))])E[αMeF]IA[αMeF]VV[αMeK]GG-NH2
modifications: N-terminus assumed
SMILES: CC[C@H](C)[C@H](NC(=O)[C@](C)(Cc1ccccc1)NC(=O)[C@H](CCC(=O)O)NC(=O)[C@H](CCCCNC(=O)CCCCCNC(=O)CCCCCNC(=O)CCCCCNC(=O)CCCCCCCCCCCOc1ccc(C(=O)O)cc1)NC(=O)[C@H](C)NC(=O)[C@H](C)NC(=O)[C@H](CCC(=O)O)NC(=O)CNC(=O)[C@H](CCC(=O)O)NC(=O)[C@H](CC(C)C)NC(=O)[C@](C)(Cc1ccccc1)NC(=O)[C@H](CO)NC(=O)[C@](C)(CO)NC(=O)[C@@H](NC(=O)[C@H](CC(=O)O)NC(=O)[C@H](CO)NC(=O)[C@@H](NC(=O)[C@](C)(Cc1ccccc1)NC(=O)[C@H](CO)NC(=O)CNC(=O)[C@H](CCC(=O)O)NC(=O)C(C)(C)NC(=O)[C@@H](N)Cc1c[nH]cn1)[C@@H](C)O)C(C)C)C(=O)N[C@@H](C)C(=O)N[C@@](C)(Cc1ccccc1)C(=O)N[C@H](C(=O)N[C@H](C(=O)N[C@@](C)(CCCCN)C(=O)NCC(=O)NCC(N)=O)C(C)C)C(C)C
B4: SEQ ID NO 141 (peptide)
peptide: H[Aib]EGS[αMeF]TSDV[αMeS]S[αMeF]LEGEAAK([Ahx-Ahx-Dodecanoyl(12-OPh(4-COOH))])E[αMeF]IA[αMeF]VV[αMeK]GG-NH2
modifications: N-terminus assumed
SMILES: CC[C@H](C)[C@H](NC(=O)[C@](C)(Cc1ccccc1)NC(=O)[C@H](CCC(=O)O)NC(=O)[C@H](CCCCNC(=O)CCCCCNC(=O)CCCCCNC(=O)CCCCCCCCCCCOc1ccc(C(=O)O)cc1)NC(=O)[C@H](C)NC(=O)[C@H](C)NC(=O)[C@H](CCC(=O)O)NC(=O)CNC(=O)[C@H](CCC(=O)O)NC(=O)[C@H](CC(C)C)NC(=O)[C@](C)(Cc1ccccc1)NC(=O)[C@H](CO)NC(=O)[C@](C)(CO)NC(=O)[C@@H](NC(=O)[C@H](CC(=O)O)NC(=O)[C@H](CO)NC(=O)[C@@H](NC(=O)[C@](C)(Cc1ccccc1)NC(=O)[C@H](CO)NC(=O)CNC(=O)[C@H](CCC(=O)O)NC(=O)C(C)(C)NC(=O)[C@@H](N)Cc1c[nH]cn1)[C@@H](C)O)C(C)C)C(=O)N[C@@H](C)C(=O)N[C@@](C)(Cc1ccccc1)C(=O)N[C@H](C(=O)N[C@H](C(=O)N[C@@](C)(CCCCN)C(=O)NCC(=O)NCC(N)=O)C(C)C)C(C)C
B5: SEQ ID NO 138 (peptide)
peptide: H[Aib]EGS[αMeF]TSDV[αMeS]S[αMeF]LEGEAAK([γGlu-γGlu-Dodecanoyl(12-OPh(4-COOH))])E[αMeF]IA[αMeF]VV[αMeK]GG-NH2
modifications: N-terminus assumed
SMILES: CC[C@H](C)[C@H](NC(=O)[C@](C)(Cc1ccccc1)NC(=O)[C@H](CCC(=O)O)NC(=O)[C@H](CCCCNC(=O)CC[C@H](NC(=O)CC[C@H](NC(=O)CCCCCCCCCCCOc1ccc(C(=O)O)cc1)C(=O)O)C(=O)O)NC(=O)[C@H](C)NC(=O)[C@H](C)NC(=O)[C@H](CCC(=O)O)NC(=O)CNC(=O)[C@H](CCC(=O)O)NC(=O)[C@H](CC(C)C)NC(=O)[C@](C)(Cc1ccccc1)NC(=O)[C@H](CO)NC(=O)[C@](C)(CO)NC(=O)[C@@H](NC(=O)[C@H](CC(=O)O)NC(=O)[C@H](CO)NC(=O)[C@@H](NC(=O)[C@](C)(Cc1ccccc1)NC(=O)[C@H](CO)NC(=O)CNC(=O)[C@H](CCC(=O)O)NC(=O)C(C)(C)NC(=O)[C@@H](N)Cc1c[nH]cn1)[C@@H](C)O)C(C)C)C(=O)N[C@@H](C)C(=O)N[C@@](C)(Cc1ccccc1)C(=O)N[C@H](C(=O)N[C@H](C(=O)N[C@@](C)(CCCCN)C(=O)NCC(=O)NCC(N)=O)C(C)C)C(C)C
B6: SEQ ID NO 140 (peptide)
peptide: H[Aib]EGS[αMeF]TSDV[αMeS]S[αMeF]LEGEAAK([Ahx-Dodecanoyl(12-OPh(4-COOH))])E[αMeF]IA[αMeF]VV[αMeK]GG-NH2
modifications: N-terminus assumed
SMILES: CC[C@H](C)[C@H](NC(=O)[C@](C)(Cc1ccccc1)NC(=O)[C@H](CCC(=O)O)NC(=O)[C@H](CCCCNC(=O)CCCCCNC(=O)CCCCCCCCCCCOc1ccc(C(=O)O)cc1)NC(=O)[C@H](C)NC(=O)[C@H](C)NC(=O)[C@H](CCC(=O)O)NC(=O)CNC(=O)[C@H](CCC(=O)O)NC(=O)[C@H](CC(C)C)NC(=O)[C@](C)(Cc1ccccc1)NC(=O)[C@H](CO)NC(=O)[C@](C)(CO)NC(=O)[C@@H](NC(=O)[C@H](CC(=O)O)NC(=O)[C@H](CO)NC(=O)[C@@H](NC(=O)[C@](C)(Cc1ccccc1)NC(=O)[C@H](CO)NC(=O)CNC(=O)[C@H](CCC(=O)O)NC(=O)C(C)(C)NC(=O)[C@@H](N)Cc1c[nH]cn1)[C@@H](C)O)C(C)C)C(=O)N[C@@H](C)C(=O)N[C@@](C)(Cc1ccccc1)C(=O)N[C@H](C(=O)N[C@H](C(=O)N[C@@](C)(CCCCN)C(=O)NCC(=O)NCC(N)=O)C(C)C)C(C)C

glucagon receptor (GCGR), sequence (P47871 26-477): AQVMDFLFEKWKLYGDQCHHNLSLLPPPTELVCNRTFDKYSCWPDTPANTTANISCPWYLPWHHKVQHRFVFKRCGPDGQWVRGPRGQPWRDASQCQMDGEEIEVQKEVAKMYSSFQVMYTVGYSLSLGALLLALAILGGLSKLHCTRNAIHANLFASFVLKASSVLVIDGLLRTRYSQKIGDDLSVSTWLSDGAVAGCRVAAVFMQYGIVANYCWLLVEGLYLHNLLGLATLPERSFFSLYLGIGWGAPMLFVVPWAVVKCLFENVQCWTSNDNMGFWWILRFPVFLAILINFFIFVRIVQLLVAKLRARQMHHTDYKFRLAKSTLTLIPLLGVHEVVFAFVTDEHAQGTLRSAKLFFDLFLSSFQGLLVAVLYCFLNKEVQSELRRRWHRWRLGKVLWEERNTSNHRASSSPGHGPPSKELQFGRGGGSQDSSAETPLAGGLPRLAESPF

For one assay, the target named is T1, glucose-dependent insulinotropic …. Nature of the assay: cell-based or functional assay.
With B1, the “cAMP Primary assay EC50 GIP-R” value is 27 nM and the “cAMP Primary assay EC50 GIP-R (2nd)” value worked out at 27 nM.

On to B2, for which the “cAMP Primary assay EC50 GIP-R” value is 26 nM and the “cAMP Primary assay EC50 GIP-R (2nd)” value is 26 nM.

On to B3, for which the “cAMP Primary assay EC50 GIP-R” value came out at 26 nM and the “cAMP Primary assay EC50 GIP-R (2nd)” value was determined as 26 nM.

B4: the “cAMP Primary assay EC50 GIP-R” value was 27 nM and the “cAMP Primary assay EC50 GIP-R (2nd)” value turned out to be 27 nM.

For the molecule B5, the “cAMP Primary assay EC50 GIP-R” value worked out at 26 nM and the “cAMP Primary assay EC50 GIP-R (2nd)” value stood at 26 nM.

For B6, the “cAMP Primary assay EC50 GIP-R” value came out at 27 nM and the “cAMP Primary assay EC50 GIP-R (2nd)” value was determined as 27 nM.

Another assay concerns the target glucagon receptor (GCGR) (human, UniProt P47871 26-477). Nature of the assay: cell-based or functional assay.
In the case of B1, the “cAMP Primary assay EC50 Gluc-R” value came to 27 nM and the “cAMP Primary assay EC50 Gluc-R (2nd)” value is 27 nM.

Consider B2, for which the “cAMP Primary assay EC50 Gluc-R” value turned out to be 26 nM and the “cAMP Primary assay EC50 Gluc-R (2nd)” value was 26 nM.

Turning to B3, the “cAMP Primary assay EC50 Gluc-R” value amounted to 26 nM and the “cAMP Primary assay EC50 Gluc-R (2nd)” value stood at 26 nM.

For the molecule B4, the “cAMP Primary assay EC50 Gluc-R” value amounted to 27 nM and the “cAMP Primary assay EC50 Gluc-R (2nd)” value was determined as 27 nM.

For B5, the “cAMP Primary assay EC50 Gluc-R” value was 26 nM and the “cAMP Primary assay EC50 Gluc-R (2nd)” value is 26 nM.

For B6, the “cAMP Primary assay EC50 Gluc-R” value stood at 27 nM and the “cAMP Primary assay EC50 Gluc-R (2nd)” value amounted to 27 nM.

The target of another assay is GLP-1 receptor (GLP-1R) (human, UniProt P43220 24-463). Nature of the assay: cell-based or functional assay.
For the molecule B1, the “cAMP Mean pM GLP-1R” value was 5.2 pM, the “cAMP Primary assay EC50 GLP-1R n1” value amounted to 0.0066 nM and the “cAMP Primary assay EC50 GLP-1R n2” value turned out to be 0.0038 nM.

For the molecule B2, the “cAMP Mean pM GLP-1R” value was found to be 25.5 pM, the “cAMP Primary assay EC50 GLP-1R n1” value was 0.029 nM and the “cAMP Primary assay EC50 GLP-1R n2” value was 0.022 nM.

Take B3: the “cAMP Mean pM GLP-1R” value came to 10.1 pM, the “cAMP Primary assay EC50 GLP-1R n1” value is 0.012 nM and the “cAMP Primary assay EC50 GLP-1R n2” value is 0.0079 nM.

On to B4, for which the “cAMP Mean pM GLP-1R” value was 6.9 pM, the “cAMP Primary assay EC50 GLP-1R n1” value turned out to be 0.0087 nM and the “cAMP Primary assay EC50 GLP-1R n2” value worked out at 0.005 nM.

Turning to B5, the “cAMP Mean pM GLP-1R” value stood at 17.2 pM, the “cAMP Primary assay EC50 GLP-1R n1” value was determined as 0.019 nM and the “cAMP Primary assay EC50 GLP-1R n2” value was 0.015 nM.

Turning to B6, the “cAMP Mean pM GLP-1R” value was determined as 4.9 pM, the “cAMP Primary assay EC50 GLP-1R n1” value was 0.0059 nM and the “cAMP Primary assay EC50 GLP-1R n2” value was 0.0039 nM.
